From publication PMC6355189, “A structural model of the immune checkpoint CD160–HVEM complex derived from HDX-mass spectrometry and molecular modeling” (Oncotarget, 2019) come the findings set out here.

Ends that are not written are not given here.

The target of assay [1] is T1, Recombinant human protein HVEM with His Tag (human, UniProt Q92956 39-202).
T1 construct: herpes virus entry mediator (HVEM), human, recombinant, bought; also called HVEM protein; herpes virus entry mediator; source: bought: Sino Biological Inc., China (#10334-H08H)
T1 sequence (looked up): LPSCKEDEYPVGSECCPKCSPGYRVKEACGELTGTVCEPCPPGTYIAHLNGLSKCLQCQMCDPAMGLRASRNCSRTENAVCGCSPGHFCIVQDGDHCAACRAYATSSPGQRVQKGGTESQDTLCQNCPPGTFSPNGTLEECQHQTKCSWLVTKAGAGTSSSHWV
Briefly: microcolumn affinity test with mass spectrometry; HVEM protein immobilised in a microcolumn; peptide applied; supernatant, last wash and elution analysed by mass spectrometry. The following applies: both partners purified.

Assay [2] concerns the target T2, Human HVEM-Fc protein (human, UniProt Q92956 39-202).
T2 construct: herpes virus entry mediator (HVEM), human, as Fc fusion, bought; Detected by goat anti-human IgG(H+L)-HRP; source: bought: ACROBiosystems, USA (#HVM-H5258)
T2 sequence (looked up): T1 sequence (looked up)
Briefly: ELISA; biotinylated peptides or biotinylated CD160 (1 μg/ml) on a streptavidin microplate; HVEM-Fc at 20, 10 and 5 μg/ml, 1 hour at 25°C; PBS-T (5 mM Na2HPO4, 150 mM NaCl with addition of 0.3 M NaCl and 0.05% Tween-20, pH 7.4); detection by goat antihuman IgG(H+L)–HRP. The following applies: both partners purified.

B1: CD160 (61–80) (peptide)
peptide: Ac-GVGEISSQLMFTISQVTPLH-NH2
notes: CD160, human, residues 61-80; source: synthetic peptide
On to B1, for which, in assay [1], the binding result is recorded as “binds”.

B2: CD160(61–80) peptide elongated by five glycine residues and biotin (peptide)
peptide: GVGEISSQLMFTISQVTPLH
modifications: also: elongated by five glycine residues and biotin, end not given here
notes: as for B1
As for B2, the binding result in assay [2] is reported as “binds”.
